The values that follow come from patent publication US20150174169.

Data set [1] relates to AAVS1 ZFN pair (ZFN-L/ZFN-R, PPP1R12C intron 1) (synthetic construct). Put plainly: cell_activity. The following applies: CD34+ cord blood cells, Cel-1 mismatch assay, +/-3.8.
Data set [2] deals with IL2RG ZFN pair (ZFN-L/ZFN-R, exon 5) (synthetic construct). Put plainly: cell_activity. To be noted: in vitro sample A.

Take AAVS1 ZFN target site: the activity in data set [1] was found to be 23.8 % NHEJ.
As to SLC31A1 off-target site, in data set [2] (B and G ns, mouse C0 0.02), the activity worked out at 0.61 % NHEJ.
In data set [2] (B 0.70, G ns, ns in mouse), SCARB1 off-target site gave an activity of 0.17 % NHEJ.
IL2RG ZFN target site registered an activity in data set [2] (deep sequencing, B 61.18, G 45.60, Cel-1 assay 26.3+/-2.7 (p192)) of 54.6 % NHEJ.
